Experimental data as given in PMC8828901, “Sox9 is involved in the thyroid differentiation program and is regulated by crosstalk between TSH, TGFβ and thyroid transcription factors”.

B1: Sox9 promoter CRE (dsDNA)
DNA 1: CCTCGAGTCTCGTCACCCA
DNA 2: TGGGTGACGAGACTCGAGG
B2: Sox9 promoter Smad site (dsDNA)
DNA 1: CTCGGAACTGTCTGGAAACTTCAG
DNA 2: CTGAAGTTTCCAGACAGTTCCGAG

What was measured:
CREB (TNT-CREB) = CREB (TNT-CREB) (UniProt P16220 1-327); assay: EMSA; specific; 40 mM Hepes pH 7.9, 75 mM KCl, 0.2 mM EDTA, 0.5 mM DTT, 150 ng/ul poly(dI-dC), 5% Ficoll, room temperature, 30 min; 7 ug TNT protein; competitor 100-fold or 50-fold (Methods); conditions: protein: ivt; chain copies: 2; label: 32P; blunt
Smad3 (TNT-Smad3) = Smad3 (TNT-Smad3) (UniProt P84022 1-425); assay: as above; conditions: protein: ivt; label: 32P; blunt
Sequence of Smad3 (TNT-Smad3) (P84022 whole entry): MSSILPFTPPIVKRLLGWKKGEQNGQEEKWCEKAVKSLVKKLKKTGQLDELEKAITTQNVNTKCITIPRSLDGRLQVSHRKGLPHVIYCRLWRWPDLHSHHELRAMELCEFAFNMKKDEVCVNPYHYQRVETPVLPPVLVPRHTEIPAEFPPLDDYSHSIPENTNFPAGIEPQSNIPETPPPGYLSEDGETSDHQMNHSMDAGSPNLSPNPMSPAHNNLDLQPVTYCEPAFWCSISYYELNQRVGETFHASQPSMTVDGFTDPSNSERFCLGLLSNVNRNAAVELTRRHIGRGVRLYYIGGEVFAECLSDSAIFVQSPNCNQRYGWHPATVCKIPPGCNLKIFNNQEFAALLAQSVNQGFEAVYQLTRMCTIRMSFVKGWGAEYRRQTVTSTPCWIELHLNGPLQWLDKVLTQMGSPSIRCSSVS

Sequence of CREB (TNT-CREB) (P16220 whole entry): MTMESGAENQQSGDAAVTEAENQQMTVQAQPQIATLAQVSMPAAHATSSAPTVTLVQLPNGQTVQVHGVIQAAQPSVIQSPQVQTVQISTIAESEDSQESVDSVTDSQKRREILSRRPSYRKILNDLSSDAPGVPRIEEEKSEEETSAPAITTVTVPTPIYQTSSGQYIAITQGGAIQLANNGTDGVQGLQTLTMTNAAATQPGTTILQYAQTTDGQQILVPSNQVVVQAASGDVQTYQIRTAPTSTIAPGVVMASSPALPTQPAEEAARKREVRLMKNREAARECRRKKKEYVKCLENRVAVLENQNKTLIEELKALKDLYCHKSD

Row | Binder | binding result (CREB (TNT-CREB)) | binding result (Smad3 (TNT-Smad3))
1 | B1 | binds | –
2 | B2 | – | binds
